For the test, the target named is IL-13 (human IL-13, preparation not specified) (human) (UniProt P35225). Briefly: cell-based or functional assay.
IL-13 (human IL-13, preparation not specified) (human), sequence (P35225 35-146 limits assumed): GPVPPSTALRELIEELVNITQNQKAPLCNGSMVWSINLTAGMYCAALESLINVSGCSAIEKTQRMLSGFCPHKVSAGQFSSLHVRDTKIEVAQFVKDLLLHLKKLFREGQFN

B1: human IL-13 receptor α2/Fc (Fc fusion, UniProt Q14627 27-343, looked up, not shown: a dimerising Fc or GST)
chain: DTEIKVNPPQDFEIVDPGYLGYLYLQWQPPLSLDHFKECTVEYELKYRNIGSETWKTIITKNLHYKDGFDLNKGIEAKIHTLLPWQCTNGSEVQSSWAETTYWISPQGIPETKVQDMDCVYYNWQYLLCSWKPGIGVLLDTNYNLFYWYEGLDHALQCVDYIKADGQNIGCRFPYLEASDYKDFYICVNGSSENKPIRSSYFTFQLQNIVKPLPPVYLTFTRESSCEIKLKWSIPLGPIPARCFDYEIEIREDDTTLVTATVENETYTLKTTNETRQLCFVVRSKVNIYCSDDGIWSEWSDKQCWEGEDLSKKTLLR
In the case of B1, the IC50, Eotaxin-1 assay, Average amounted to 0.131 nM; the IC50, Eotaxin-1 assay, n = 1 was determined as 0.128 nM; the IC50, Eotaxin-1 assay, n = 2 came to 0.147 nM; the IC50, Eotaxin-1 assay, n = 3 turned out to be 0.119 nM.

B2: murine IL-13 receptor α2/FC (Fc fusion, UniProt O88786 22-334, looked up, not shown: a dimerising Fc or GST)
chain: LEIKVNPPQDFEILDPGLLGYLYLQWKPPVVIEKFKGCTLEYELKYRNVDSDSWKTIITRNLIYKDGFDLNKGIEGKIRTHLSEHCTNGSEVQSPWIEASYGISDEGSLETKIQDMKCIYYNWQYLVCSWKPGKTVYSDTNYTMFFWYEGLDHALQCADYLQHDEKNVGCKLSNLDSSDYKDFFICVNGSSKLEPIRSSYTVFQLQNIVKPLPPEFLHISVENSIDIRMKWSTPGGPIPPRCYTYEIVIREDDISWESATDKNDMKLKRRANESEDLCFFVRCKVNIYCADDGIWSEWSEEECWEGYTGPDSK
As for B2, the IC50, Eotaxin-1 assay, Average is 0.032 nM; the IC50, Eotaxin-1 assay, n = 1 is 0.029 nM; the IC50, Eotaxin-1 assay, n = 2 stood at 0.039 nM; the IC50, Eotaxin-1 assay, n = 3 turned out to be 0.029 nM.
